Changes are numbered by the printed parent chain.

The target in test [1] is T1, Recombinant human Dkk-1 (R&D Systems cat no. 1096-DK/CF), 10xHis tag at the C terminal (human, UniProt O94907 32-266).
T1 construct: the actual N-terminus of the purified protein is marked in bold italic after residue 30, but the mark is an image lost in the text; also called rhuDkk-1; hDkk-1
T1 sequence: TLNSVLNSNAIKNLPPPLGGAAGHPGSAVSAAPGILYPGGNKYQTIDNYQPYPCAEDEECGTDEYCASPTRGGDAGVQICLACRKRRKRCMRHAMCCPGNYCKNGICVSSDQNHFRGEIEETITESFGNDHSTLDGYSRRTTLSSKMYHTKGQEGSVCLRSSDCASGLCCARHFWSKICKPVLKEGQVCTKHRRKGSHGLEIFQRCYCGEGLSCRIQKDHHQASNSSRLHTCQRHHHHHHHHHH
The test can be described thus: SPR 37C (BIAcore/ProteOn), hDkk-1 series over captured IgG (taken so as kon is printed).

The target in test [2] is T1, Recombinant human Dkk-1 (R&D Systems …). Nature of the test: theoretical: koff / estimated kon 1e6 1/Ms (SPR screening 37C). The protocol: (§1) For screening assays to determine binding and dissociation rates of huMabJC18 variants to human Dkk1, either BIAcore or ProteOn XPR36 (BioRad, Inc.) systems were used. For the BIAcore assay, biotinylated-human Dkk1 was captured on SA (streptavidin) BIAcore chips according to the supplier's instructions. Biotinylated-human Dkk-1 protein was diluted into HBS-EP, and injected over the chip at a concentration of 5 μg/mL. Flow times across the individual chip channels were selected to achieve an antigen density of approximately 500-600 response units (RU). HBS-EP buffer was used as running buffer. Filtered recombinant E.coli cell lysates were injected at high temperature (37° C.) for 1 min at 30 ul/min, allowing a 1-5 min dissociation phase. Surfaces were regenerated with 8 mM NaOH+8% ethanol. A positive control Fab (clone 24) was injected twice at the start of the experiment, and again at the end of the assay to assess reproducibility.
For the ProteOn assay, biotinylated human Dkk-1 was injected for 1 min at serial fold dilutions empirically determined to yield different levels of immobilization (150-3000 RU) on five channels of a ProteOn NLC Neutravidin sensor chip. The sixth channel was left unmodified to serve as a reference surface. Recombinant Fabs in filtered E. coli lysates were injected at high temperature (37° C.) for 50 sec at 20 μl/min. Running buffer consisted of PBS+1 mg/ml BSA+0.005% Tween-20. The ProteOn is configured such that each injection flows over each of the five Dkk-1 channels as well as the reference channel, and six Fab samples can be injected simultaneously. Fab dissociation from the Dkk-1 surface was monitored for 20 min. The chip surface was regenerated with a 30-sec injection of 8% EtOH, 8 mM NaOH. Clone 24 Fab was used as control. Level of binding during association, and rate of dissociation for each clone was very consistent between different ligand channels. […]

For test [3] the target is unchanged. The test can be described thus: SPR screening 37C (BIAcore/ProteOn), Fab lysate over biotinylated human Dkk-1. The protocol: as §1
For the ProteOn assay, biotinylated human Dkk-1 was injected for 1 min at serial fold dilutions empirically determined to yield different levels of immobilization (150-3000 RU) on five channels of a ProteOn NLC Neutravidin sensor chip. The sixth channel was left unmodified to serve as a reference surface. Recombinant Fabs in filtered E. coli lysates were injected at high temperature (37° C.) for 50 sec at 20 μl/min. Running buffer consisted of PBS+1 mg/ml BSA+0.005% Tween-20. The ProteOn is configured such that each injection flows over each of the five Dkk-1 channels as well as the reference channel, and six Fab samples can be injected simultaneously. Fab dissociation from the Dkk-1 surface was monitored for 20 min. The chip surface was regenerated with a 30-sec injection of 8% EtOH, 8 mM NaOH. Clone 24 Fab was used as control. Level of binding during association, and rate of dissociation for each clone was very consistent between different ligand channels.

B1: 4E8.33L (antibody, V domains shown)
VH: EVQLVESGGGLVQPGGSLRLSCAASGFTFSSYAISWVRQAPGKGLEWVASVSGWLDTYYPDSVKGRFTISRDNAKNSLYLQMNSLRAEDTAVYYCATSLENYAFDYWGQGTTVTVSS
VL: EIVLTQSPATLSLSPGERATLSCRASESVDDFGISFINWYQQKPGQAPRLLIYAGSKQGSGIPARFSGSGSGTDFTLTISSLEPEDFAVYYCQQLKEVPPTFGGGTKVEIK
For the molecule B1, in test [1], the Kd stood at 0.008 nM, the koff is 8.55e-05 s⁻¹ and the association rate constant (kon) came out at 1.13e+07 M⁻¹ s⁻¹.

B2: 2E11.33L (antibody, V domains shown)
VH: EVQLVESGGGLVQPGGSLRLSCAASGFTFSSYAISWVRQAPGKGLEWVASVSGTGLGFQTYYPDSVKGRFTISRDNAKNSLYLQMNSLRAEDTAVYYCATSLRNYAFDYWGQGTTVTVSS
VL: B1 VL
As for B2, in test [1], the Kd was found to be 0.03 nM, the koff is 8.55e-05 s⁻¹ and the kon was 2.88e+06 M⁻¹ s⁻¹.

B3: L2.4E1 (Fab, V domains shown)
VH: EVQLVESGGGLVQPGGSLRLSCAASGFTFSSYAISWVRQAPGKGLEWVASVSGHGVWTYYPDSVKGRFTISRDNAKNSLYLQMNSLRAEDTAVYYCATSLENYAFDYWGQGTTVTVSS
VL: B1 VL with I37M, G55A, L95S
notes: G55# and L56# read as gaps; tested as Fab (E. coli lysate, screening mode); human kappa CL and IgG2 CH1 not included here
For B3, the Kd in test [2] was 5.51 nM. In addition, the koff in test [3] stood at 0.00551 s⁻¹.

B4: SL3.4E4 (Fab, V domains shown)
VH: B1 VH with W54G, L55G, D56R
VL: B1 VL with I37M, G55A, L95S, E97D
notes: tested as Fab (E. coli lysate, screening mode); human kappa CL and IgG2 CH1 not included here
Consider B4, for which the Kd in test [2] is 7.7 nM. The koff in test [3] was determined as 0.0077 s⁻¹.

B5: SL3.3H8 (Fab, V domains shown)
VH: B1 VH with W54G, L55G, D56R
VL: B1 VL with I37M, G55A, L95S, P100G
notes: as for B4
In the case of B5, in test [2], the Kd was 22.9 nM. Also, the koff in test [3] is 0.0229 s⁻¹.

B6: SL3.3A10 (Fab, V domains shown)
VH: B1 VH with W54G, L55G, D56R
VL: B1 VL with I37M, G55A, L95S, V98L
notes: as for B4
For B6, the Kd in test [2] was 5.72 nM. Besides, the koff in test [3] is 0.00572 s⁻¹.

B7: L2.P4.D1 (Fab, V domains shown)
VH: B2 VH with R103D
VL: B1 VL with I37M, G55A, L95S
notes: as for B4
As to B7, in test [2], the dissociation constant Kd was 2.88 nM. Besides, in test [3], the koff turned out to be 0.00288 s⁻¹.

B8: SL3.1F11 (Fab, V domains shown)
VH: B1 VH with W54G, L55G, D56R
VL: B1 VL with I37M, G55A, L95S, K96W
notes: as for B4
For B8, the Kd in test [2] is 5.4 nM. Moreover, in test [3], the koff stood at 0.0054 s⁻¹.

B9: SL3.4A10 (Fab, V domains shown)
VH: B1 VH with W54G, L55G, D56R
VL: B1 VL with I37M, G55A, L95S, K96L
notes: as for B4
Take B9: the Kd in test [2] was 7.3 nM. For the same molecule, the koff in test [3] turned out to be 0.0073 s⁻¹.

B10: SL3.1G9 (Fab, V domains shown)
VH: B1 VH with W54G, L55G, D56R
VL: B1 VL with I37M, G55A
notes: as for B4
On to B10, for which the Kd in test [2] is 0.947 nM. Besides, the koff in test [3] worked out at 0.000947 s⁻¹.

B11: SL3.3C10 (Fab, V domains shown)
VH: B1 VH with W54G, L55G, D56R
VL: B1 VL with I37M, G55A, L95S, P99W
notes: as for B4
As for B11, the Kd in test [2] was 12.1 nM. In test [3], the koff came out at 0.0121 s⁻¹.

B12: L3.4H5 (Fab, V domains shown)
VH: B1 VH with L55G, T97S, E100D
VL: B1 VL
notes: as for B4
Turning to B12, the dissociation constant Kd in test [2] is 0.808 nM. Moreover, the koff in test [3] amounted to 0.000808 s⁻¹.

B13: SL3.1F12 (Fab, V domains shown)
VH: B1 VH with W54G, L55G, D56R
VL: B1 VL with I37M, G55A, L95S, T101Y
notes: as for B4
Consider B13, for which, in test [2], the Kd was 5.52 nM. Also, in test [3], the koff was found to be 0.00552 s⁻¹.

B14: SL3.4F1 (Fab, V domains shown)
VH: B1 VH with W54G, L55G, D56R
VL: B1 VL with I37M, G55A, L95S, P100S
notes: as for B4
With B14, the Kd in test [2] was 16.9 nM. Also, the koff in test [3] worked out at 0.0169 s⁻¹.

B15: SL3.4C7 (Fab, V domains shown)
VH: B1 VH with W54G, L55G, D56R
VL: B1 VL with I37M, G55A, Q94H, L95S
notes: as for B4
On to B15, for which the Kd in test [2] is 7.3 nM. Moreover, in test [3], the koff amounted to 0.0073 s⁻¹.

B16: SL3.4D1 (Fab, V domains shown)
VH: B1 VH with W54G, L55G, D56R
VL: B1 VL with I37M, G55A, L95S, K96M
notes: as for B4
Consider B16, for which the Kd in test [2] was 7.5 nM. The koff in test [3] was found to be 0.0075 s⁻¹.

B17: SL3.3B11 (Fab, V domains shown)
VH: B1 VH with W54G, L55G, D56R
VL: B1 VL with I37M, G55A, L95A
notes: as for B4
Take B17: the Kd in test [2] was 12 nM. The koff in test [3] worked out at 0.012 s⁻¹.

B18: L3.4E7 (Fab, V domains shown)
VH: B1 VH with L55G, E100Q
VL: B1 VL
notes: tested as Fab (E. coli lysate, screening mode); human kappa CL and IgG2 CH1 not included here; printed changes identical to L3.4H2
Take B18: the Kd in test [2] was 0.276 nM. In test [3], the koff was 0.000276 s⁻¹.

B19: L3.4H2 (Fab, V domains shown)
VH: B1 VH with L55G, E100Q
VL: B1 VL
notes: tested as Fab (E. coli lysate, screening mode); human kappa CL and IgG2 CH1 not included here; printed changes identical to L3.4E7
B19: in test [2], the Kd is 0.048 nM. In addition, in test [3], the koff stood at 4.8e-05 s⁻¹.

B20: SL3.1D2 (Fab, V domains shown)
VH: B1 VH with W54G, L55G, D56R
VL: B1 VL with I37M, G55A, L95S, T101L
notes: as for B4
On to B20, for which, in test [2], the Kd was 4.9 nM. Also, in test [3], the koff turned out to be 0.0049 s⁻¹.

B21: SL3.4F5 (Fab, V domains shown)
VH: B1 VH with W54G, L55G, D56R
VL: B1 VL with I37M, G55A, L95G
notes: as for B4
On to B21, for which the Kd in test [2] was 7.8 nM. Also, the koff in test [3] is 0.0078 s⁻¹.

B22: L3.4E10 (Fab, V domains shown)
VH: B1 VH with L55G, D56H, E100Q
VL: B1 VL
notes: as for B4
In the case of B22, in test [2], the Kd was 0.533 nM. Besides, the koff in test [3] was determined as 0.000533 s⁻¹.

B23: 36H.33L (antibody, V domains shown)
VH: B1 VH with L55F, E100R
VL: B1 VL
In the case of B23, in test [1], the Kd came to 0.017 nM, the koff stood at 8.55e-05 s⁻¹ and the kon was 5.18e+06 M⁻¹ s⁻¹.

B24: SL3.3F4 (Fab, V domains shown)
VH: B1 VH with W54G, L55G, D56R
VL: B1 VL with I37M, G55A, L95S, K96S
notes: as for B4
Take B24: in test [2], the Kd was 11.8 nM. Also, the koff in test [3] came out at 0.0118 s⁻¹.

B25: SL3.1G2 (Fab, V domains shown)
VH: B1 VH with W54G, L55G, D56R
VL: B1 VL with I37M, G55A, L95S, K96I
notes: as for B4
In the case of B25, in test [2], the Kd is 8.72 nM. In test [3], the koff amounted to 0.00872 s⁻¹.

The record behind these values is patent publication US20130071921A1 (Pfizer, published 2013).
